The experiment has as its target c-Abl (UniProt P00519). Briefly: anti-c-Abl IP, FLAG-PCNA western. The settings on record: reference: wild-type FLAG-PCNA; sites Y211.

Regarding “PCNA (proliferating cell nuclear antigen) (from UniProt P12004) Y211F FLAG-PCNA”, the “binding against the reference” value was “weaker”.

Values taken from PMC3251568.
